Results as given in doi:10.1101/2025.10.25.684501.

Target: reconstituted silk fibroin (RSF) labelled with DyLight 650 (Bombyx mori) (UniProt P05790)
Assay: MST

wild-type (WT) α-synuclein (from UniProt P37840 1-140) (natural protein)
Kd: 24 nM
